Test results: US20110319318A1, “COVALENT MILK PROTEIN/ISOTHIOCYANATE COMPLEXES” (NESTEC S.A., priority 2009, published 2011)

Legend:
[1] = Emulsifying properties, 10% sunflower oil-in-water emulsions, stability on storage; format: physicochemical
Protocol: Emulsifying properties of BLG-AITC conjugates, non-heated and heated at pH 7.0 and 4.0 (prepared as described in examples 1 and 2), were evaluated by preparing emulsions containing 10% (w/w) of “high oleic” sunflower oil (Oleifico SABO, Manno, Switzerland). Samples containing BLG-AITC conjugates in the equimolar ratio were diluted to 0.25 mM BLG and mixed with oil in a pyrex tube (D 25 mm, V 35 mL) to a final weight of 20 g. They were pre-homogenized using an Ultra Turrax® T25 equipped with a S25N-10G dispersing head (IKA-Werke, Staufen, Germany) rotating at 16,000 rpm for 1 minute. Homogenization of emulsions was completed using an ultrasonic processor (Hielscher UP400S, power 400 W, frequency 24 kHz) and a sonotrode (diameter 7 mm, approx. length 100 mm, titanium) at room temperature for 75 seconds and 75% amplitude of the ultrasound maximal power. This emulsification time was enough to disperse the oil in small droplets and to avoid excessive heating of the sample.
Stability of emulsions to creaming and flocculation was followed over 33 days of storage at 4° C.

[2] = molecular target: T1, β-lactoglobulin (BLG) (Bos taurus, UniProt P02754); assay: Binding of AITC to BLG from disappearance of free -SH / -NH2 groups (Ellman's reagent, OPA); design: species or system bovine; conditions: 25° C., pH 8.5
T1 construct: The composition in the major whey protein fraction was 89.22% BLG; purchased Davisco Biopure, lot JE 001-3-922
T1 sequence (P02754 17-178): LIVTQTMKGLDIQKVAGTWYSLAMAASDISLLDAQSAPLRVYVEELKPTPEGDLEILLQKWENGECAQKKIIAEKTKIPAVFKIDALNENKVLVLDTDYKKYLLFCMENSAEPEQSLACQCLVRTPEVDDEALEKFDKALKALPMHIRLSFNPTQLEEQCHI
Protocol: A volume of 50 mL of mixtures was prepared by mixing 1 mM BLG (pH 8.5) with 200 mM AITC in Millipore® water to obtain AITC to BLG molar ratios from 0.1 to 40. Final concentration of ethanol in all sample solutions was adjusted to 5%. Samples were incubated 24 h at room temperature, under agitation (using a roller mixer SRT2, Milian, Switzerland) and protected from light. Upon incubation, contents in free sulfhydryl (—SH) and amino (—NH2) groups were determined using the Ellman's reagent [5,5′-dithio-bis(2-nitrobenzoic acid); DTNB] (Ellman G L. Tissue sulfhydryl groups. 1959. Arch Biochem Biophys, 82, 70-77) and o-phthaldialdehyde (OPA) methods (Hofmann K, Hamm R. Sulfhydryl and disulfide groups in meats. 1978. Adv Food Res, 24, 1-111), respectively.
To determine the amount of total —SH groups sample mixtures were diluted to the final BLG concentration 50 μM in 200 mM Tris-base (Tris(hydrohymethyl)-aminomethan) buffer containing 1% SDS and 8M urea at pH 8.0. 50 μL of 10 mM DTNB in ethanol was added to 3 mL of these samples and they were left 20 min at room temperature under mild agitation. The absorbance at 412 nm was measured against corresponding reagent blanks (1% ethanol in the buffer with DTNB) using an Uvikon® 810 spectrophotometer (Kontron Instruments, Basel, Switzerland). […] Therefore, absorbance values of samples were corrected for the absorbance of corresponding concentrations of AITC. Concentration of SH groups in sample solutions was assessed according to the previously made standard calibration curve. For that purpose L-Cys (Fluka, Switzerland) dissolved in the same buffer in concentration range 0.005-0.1 mM was used.
Quantitative determination of free α- and ε-amino groups was done using the approach based on the method of Goodno et al. (Goodno C. C. Swaisgood H. E., Catignani G. L.; (1981). A fluorimetric assay for available lysine in proteins. Anal. Biochem. 115(1), 203-211.) with modifications done in our laboratory. Briefly, the determination of amino groups was carried out by mixing sample solutions (0.1 mL) with 0.3% (w/v) N-acetyl-L-cystein (Fluka, Switzerland) in borate buffer pH 9.3 (9.1 mL) and 20% SDS (w/w; 0.5 mL). […] Upon incubation, mixtures were allowed to cool down at room temperature for 30 minutes before absorbance reading was done at 340 nm. […] Therefore, absorbance values of samples were corrected for the absorbance of corresponding AITC concentrations. Concentration of free (α- and ε-) amino groups in sample solutions was assessed according to the previously made standard calibration curve. […]
Assuming that one AITC can bind per one —SH group or per one —NH2 group at the time, the molar binding ratio of AITC to BLG (BAITC/BLG) was estimated from measured values for free —SH and —NH2 groups. […]

[3] = Foaming properties (Foamscan); format: physicochemical; design: key to foam capacity: FC = volume of foam / volume of gas injected; key to foam expansion: FE = volume of foam / volume of liquid in the foam; conditions: for foam capacity / foam expansion / foam liquid stability: 55 μM BLG; for foam volume stability: over 30 min
Protocol: Foaming properties of samples (prepared as described in example 1) were evaluated using the standardized method proposed by Guillerme C, Loisel W, Bertrand D, Popineau Y. Study of foam stability by video image analysis: Relationship with the quantity of liquid in the foams. 1993. J Text Stud, 24, 287-302. The apparatus used was a standard version of the Foamscan™ from Teclis-ITConcept (Longessaigne, France). The principle of the method is to foam a definite quantity of protein dispersion by infusing gas into it through a glass frit of specific porosity. The gas flow and duration of the bubbling are controlled. The foam is generated on the surface of the liquid and it rises in the glass tube where its height is followed in real time by image analysis using a charged-coupled device (CCD) camera. The amount of liquid incorporated into the foam and the drainage rate are followed by measuring the conductivity as a function of time and with reference to the conductivity of the solution before bubbling, in the cuvette (with the remaining liquid phase), and at electrodes placed at different heights of the tube (Kato A, Takahashi A, Matsudomi N, Kobayashi K. Determination of foaming properties of proteins by conductivity measurements. 1983. J Food Sci, 48, 62-65).
BLG-AITC conjugates were prepared as described in example 1 and then acidified to pH 7.0 or 4.0 by adding 1M HCl. The amount of HCl added was ˜0.02% and ˜0.8% of the total volume, for neutral and acidic pH adjustment, respectively. 12 mL of each sample at both pHs, was put into 12 mL-glass vial and heated on 85° C. for 15 min, in addition to 5 min necessary for temperature in the vial to reach 85° C. The heating was done without agitation, in a temperature-controlled water-bath. Subsequently, samples were let to cool down at room temperature over 40 minutes under a mild agitation, and then put on ice until further analysis.
A volume of 20 mL of the sample solution (non-heated and heated BLG-AITC covalent complexes with the AITC to BLG molar ratio 0.5, 1 and 2, at both pH), diluted to 55 μM BLG (0.1%) was placed in the cuvette. Nitrogen at the flow rate 80 mL/min was bubbled in through the glass frit of porosity 4, creating the air bubbles with diameters between 10 and 16 μm. This flow rate allowed efficient foam formation before strong gravitational drainage occurred. The bubbling was stopped when the foam volume of 110 cm^3 was reached. Subsequently, foam capacity (FC=volume of foam/volume of gas injected) and foam expansion (FE=volume of the foam/volume of the liquid in the foam) were calculated. Foam volume and liquid stability (time for the foam to drain 50% of its initial liquid content) were followed over next 30 min at 24±1° C.

[4] = test system: Staphylococcus aureus; assay: Antimicrobial activity, optical density decrease at 600 nm; format: cell-based; conditions: 0.5 mM BLG, AITC/BLG molar ratio 1 to 20, 24 h at 37° C.
Protocol: (§1) Antimicrobial properties of BLG-AITC conjugates were tested against Escherichia coli and Staphylococcus aureus. Single colony of each bacteria strain, previously grown on agar plates, was inoculated into 10 mL of brain-heart infusion (BHI) broth and incubated 24 h at 37° C. under agitation. For antimicrobial properties evaluation these pre-cultures were diluted 100 times in BHI broth.
(§2) BLG-AITC covalent complexes, with the AITC to BLG molar ratio 1, 2, 10 and 20, were prepared as described in the example 1 with the difference that 200 mM AITC solution was prepared in DMSO. Samples were subsequently acidified to pH 7.0 and then concentrated 5 times by using Centrisart® I centrifugal ultrafiltration units with cellulose triacetate ultrafilters having the molecular weight cut-off of 10 kDa (Sartorious, Germany) according to manufactures instructions.
(§3) An aliquot of 600 μL of concentrated samples was added to 2.4 mL of BHI broth containing E. coli or S. aureus to reach the starting concentrations of BLG (0.5 mM) and corresponding concentration of AITC. Controls in which 600 μL of 5% DMSO or water was added were prepared as well. Test tubes with sample mixtures were then incubated 24 h at 37° C. under stirring. Subsequently, optical densities (OD) of samples were measured at 600 nm. To evaluate the inhibition of bacteria growth, ODs of samples containing BLG-AITC covalent complexes were normalized by OD of the corresponding control and are expressed as the OD decrease in percentage.

[5] = test system: Escherichia coli; assay: as above; format: cell-based; conditions: 0.5 mM BLG, AITC/BLG molar ratio 1 to 20; 24 h at 37° C.; OD 600 nm
Protocol: as §1, §2, §3

[6] = pH 4.0 with heating (85° C., 15 min)
[7] = pH 7.0 with heating (85° C., 15 min)
[8] = pH 7.0, with or without heat treatment

C=CCN=C=S [AITC, Allyl-isothiocyanate]
ability to emulsify the oil ([1]; 0.25 mM AITC alone, 10% of sunflower oil): not able to properly emulsify
oiling-off ([1]; 0.25 mM AITC alone, at day=0 and after 24 days of storage): significant oiling-off
dissociation constant KD ([2]; -SH group of BLG): very low
dissociation constant KD ([2]; amino groups of BLG): high
number of possible binding sites ([2]; amino groups of BLG): larger number of possible binding sites
maximum number of saturation site (nmax) ([2]; single free sulfhydryl group of BLG, one site binding fit): 0.84±0.06

AITC/BLG ratio 2: BLG-AITC covalent complex, AITC to BLG molar mixing ratio 2
foam capacity [3, 6]: 1.16 ± 0.01
foam expansion [3, 6]: 7.1 ± 0.2
foam liquid stability [3, 6]: 193.0 ± 2.7 s
foam capacity ([3]; pH 4.0 without heating): 1.18 ± 0.01
foam expansion ([3]; pH 4.0 without heating): 7.0 ± 0.0
foam liquid stability ([3]; pH 4.0 without heating): 216.3 ± 5.0 s
foam capacity [3, 7]: 1.16 ± 0.01
foam expansion [3, 7]: 6.7 ± 0.1
foam liquid stability [3, 7]: 128.0 ± 3.8 s
foam capacity ([3]; pH 7.0 without heating): 1.17 ± 0.01
foam expansion ([3]; pH 7.0 without heating): 6.8 ± 0.1
foam liquid stability ([3]; pH 7.0 without heating): 145.5 ± 3.9 s

BLG-AITC covalent complexes: covalent complexes of β-lactoglobulin and allyl isothiocyanate, various AITC to BLG molar ratios
stability of emulsions to creaming and flocculation ([1]; 10% sunflower oil, molar ratio 1:1, 0.25 mM BLG, 33 days of storage at 4° C., neutral or acidic pH, with or without heat treatment): very stable emulsions
improvement of foam liquid stability (more time stability) ([3]; foam produced in acidic conditions versus pH 7.0): more than 30%
foam volume stability ([3]; pH 4.0, without or with heating): more volume stable than at pH 7.0
foam volume stability [3, 8]: volume stable foams
sensitivity compared with E. coli [4]: more sensitive
reduction of optical density (OD) ([4]; OD 600 nm): able to reduce the optical density
reduction of optical density (OD) [5]: able to reduce the optical density

AITC/BLG ratio 1: BLG-AITC covalent complex, AITC to BLG molar mixing ratio 1
foam capacity [3, 6]: 1.17 ± 0.01
foam expansion [3, 6]: 7.3 ± 0.2
foam liquid stability [3, 6]: 190.5 ± 2.4 s
foam capacity ([3]; pH 4.0 without heating): 1.18 ± 0.01
foam expansion ([3]; pH 4.0 without heating): 7.1 ± 0.1
foam liquid stability ([3]; pH 4.0 without heating): 217.5 ± 1.0 s
foam volume stability [3, 8]: best foam stability
foam capacity [3, 7]: 1.14 ± 0.02
foam expansion [3, 7]: 6.8 ± 0.1
foam liquid stability [3, 7]: 130.0 ± 4.2 s
foam capacity ([3]; pH 7.0 without heating): 1.16 ± 0.01
foam expansion ([3]; pH 7.0 without heating): 6.7 ± 0.1
foam liquid stability ([3]; pH 7.0 without heating): 159.0 ± 1.8 s

AITC/BLG ratio 0.5: BLG-AITC covalent complex, AITC to BLG molar mixing ratio 0.5
foam capacity [3, 6]: 1.16 ± 0.00
foam expansion [3, 6]: 7.1 ± 0.2
foam liquid stability [3, 6]: 200.0 ± 6.9 s
foam capacity ([3]; pH 4.0 without heating): 1.18 ± 0.01
foam expansion ([3]; pH 4.0 without heating): 7.1 ± 0.0
foam liquid stability ([3]; pH 4.0 without heating): 204.5 ± 8.5 s
foam capacity [3, 7]: 1.14 ± 0.01
foam expansion [3, 7]: 6.7 ± 0.1
foam liquid stability [3, 7]: 133.0 ± 4.7 s
foam capacity ([3]; pH 7.0 without heating): 1.16 ± 0.01
foam expansion ([3]; pH 7.0 without heating): 6.8 ± 0.1
foam liquid stability ([3]; pH 7.0 without heating): 152.0 ± 3.3 s
